Test results published in US20210085781A1.

Biological target: recombinant SARS-CoV-2 S1 protein expressed from insect (Sf9) cells (S1-His, SinoBiological, Cat. No. 40591-V08B1) (SARS-CoV-2) (UniProt P0DTC2)
Assay: ELISA, coated S1 from Sf9 cells, HRP-conjugated lectin 10 ug/mL

“Salvia sclarea lectin (SSA; Cat. No: H-3501-1)” was tested, and the mean fold increase of OD450 was 3.97 fold.
